Consider four compounds from publication PMC2873477, “Reconstruction of xylose utilization pathway and regulons in Firmicutes” (BMC Genomics, 2010).

One series concerns the target T1, XylB (Clostridium acetobutylicum, UniProt Q97FW4).
T1 construct: full-length coding region, N-terminal His6 tag (pET28a), E. coli BL21(DE3), Ni-NTA purified
T1 sequence (Q97FW4 1-500): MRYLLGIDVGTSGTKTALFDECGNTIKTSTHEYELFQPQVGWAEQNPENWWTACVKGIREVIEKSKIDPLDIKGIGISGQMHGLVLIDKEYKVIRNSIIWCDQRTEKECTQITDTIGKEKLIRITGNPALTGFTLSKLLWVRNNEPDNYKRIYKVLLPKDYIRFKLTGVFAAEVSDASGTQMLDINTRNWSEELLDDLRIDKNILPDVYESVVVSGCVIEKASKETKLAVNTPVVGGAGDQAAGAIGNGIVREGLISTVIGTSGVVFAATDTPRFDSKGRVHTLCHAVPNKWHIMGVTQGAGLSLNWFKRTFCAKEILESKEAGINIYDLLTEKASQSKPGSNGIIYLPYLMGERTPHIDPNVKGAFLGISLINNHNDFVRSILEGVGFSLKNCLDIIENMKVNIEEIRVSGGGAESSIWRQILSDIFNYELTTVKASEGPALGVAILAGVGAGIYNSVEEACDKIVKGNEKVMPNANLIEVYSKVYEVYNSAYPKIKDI
Description: coupled pyruvate kinase / lactate dehydrogenase assay, NADH at […] nm. Type of series: biochemical. The settings on record: 50 mM Tris pH 7.5, 10 mM MgSO4, 1.2 mM ATP, 1 mM D-xylulose.

Series [1] addresses T2, XylR (Clostridium acetobutylicum ATCC 824) (UniProt Q97D10).
T2 sequence: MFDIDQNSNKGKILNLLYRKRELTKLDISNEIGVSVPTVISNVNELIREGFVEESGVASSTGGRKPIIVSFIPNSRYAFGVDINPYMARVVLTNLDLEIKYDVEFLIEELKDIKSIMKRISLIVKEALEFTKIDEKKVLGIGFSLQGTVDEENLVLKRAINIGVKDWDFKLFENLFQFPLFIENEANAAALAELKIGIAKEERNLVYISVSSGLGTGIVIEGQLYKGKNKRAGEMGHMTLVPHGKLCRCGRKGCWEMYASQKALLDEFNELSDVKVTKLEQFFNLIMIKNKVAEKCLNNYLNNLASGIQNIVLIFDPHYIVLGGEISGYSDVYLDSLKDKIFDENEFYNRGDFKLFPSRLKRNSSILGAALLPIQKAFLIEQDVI
Description: EMSA. The settings on record: 10 mM Tris pH 7.5, 50 mM KCl, 1 mM DTT, 2.5% glycerol, 5 mM MgCl2, 0.05% NP-40, 2 ug salmon sperm DNA in 20 ul, 28 C 20 min; 6% native PAGE 0.5x TBE at 4 C. (In general: In EMSA bound probe runs differently from free probe, usually more slowly.)

As for `Nc1ncnc2c1ncn2[C@@H]1O[C@H](COP(=O)(O)OP(=O)(O)OP(=O)(O)O)[C@@H](O)[C@H]1O` [ATP], at XylB, the “coupled pyruvate kinase / lactate dehydrogenase assay, NADH at 340 nm” value is reported as “coupling the formation of ADP to the oxidation of NADH to NAD^+”.
For the compound “AATCAAACCCCCTTAATTTTAAATAACTTTTTAAATATCCTTTAATAAGTCTATTTTACTTTTTTTACCTCCTACAGTCAATATGTTTTTGTAAACTTTTTCATTTTATTTATATAATGGCTTATATGGCACTGCATTTCACATAAAAATTGTAATAAAAAAAACTGCCCTTAAATTTTC (double strand) [xylB upstream fragment]”, in series [1], the binding entry is on record as “binds”.
As to “CACCAACCTTAATCACTAGTATTTTACTTTACCTTCATATTGTACCATATACTATATCCCCACAAAAGCCTTTATAAAGTTGTTTTATAAAGTATATATACTATGTATATTTTTTCTTATATAGTTTTAATACAAAAATGAAGTAAAGATATCAATTATATATCTTTACTTCACTTACGT (double strand) [xylR upstream fragment]”, in series [1], the binding result is “binds”.
The same measure, in the same setting: for “CTCCCCATATAATTTAAATTGGTTTTATTTAAAAAATATCTTACCAATATGATTTAAACTTCTCTAATAAATATATGTTTTTAAAGTTTGTTTAATAAGTTTTTTAGATAATCTACTCTTTAAATAAAAGCGCTCCTACTTTTAACTATTTATATATCTTTTATTTTAGGATAAGCTGAA (double strand) [CAC2611-xylA-II upstream fragment]” the value was “binds”.
